The target in data set [1] is T1, MutL WT (Escherichia coli, UniProt P23367 1-615). The data set can be described thus: cryo-EM structure (3.7 A); 3 mM AMPPNP, 5 mM Mg2+; FA: 20 mM HEPES pH 7.5, 150 mM NaCl, 5 mM MgCl2, 0.08% Tween 20, 20% glycerol, 2 mM DTT, 5 nM DNA, 25 C; BLI: 25 mM HEPES pH 7.5, 150 mM NaCl, 5 mM MgCl2, 2 mM. The conditions noted are these: protein: recombinant; (HisTrap purified); chain copies: 2; 21 bp duplex, 5' overhang 21 nt on template.

Data set [2] addresses T1, MutL WT. The data set can be described thus: fluorescence anisotropy; AMPPNP (3 mM; Fig 3C legend 1 mM); FA: 20 mM HEPES pH 7.5, 150 mM NaCl, 5 mM MgCl2, 0.08% Tween 20, 20% glycerol, 2 mM DTT, 5 nM DNA, 25 C; BLI: 25 mM HEPES pH 7.5, 150 mM NaCl, 5 mM MgCl2, 2 mM. The conditions noted are these: protein: recombinant; (HisTrap purified); chain copies: 2; label: 5'-FAM on primer S8; 15 bp duplex, 5' overhang 16 nt on template (recessed primer 3' end).

For data set [3], the target named is T1, MutL WT. The data set can be described thus: fluorescence anisotropy; 3 mM ATP (Table 2 gives 0.64 uM); FA: 20 mM HEPES pH 7.5, 150 mM NaCl, 5 mM MgCl2, 0.08% Tween 20, 20% glycerol, 2 mM DTT, 5 nM DNA, 25 C; BLI: 25 mM HEPES pH 7.5, 150 mM NaCl, 5 mM MgCl2, 2 mM. The conditions noted are these: protein: recombinant; (HisTrap purified); chain copies: 2; label: 5'-FAM on primer S8; 15 bp duplex, 5' overhang 16 nt on template (recessed primer 3' end).

The target of data set [4] is MutL H319A (Escherichia coli, UniProt P23367 1-615, H319A). In words: fluorescence anisotropy; AMPPNP (1 mM, Fig 3C); FA: 20 mM HEPES pH 7.5, 150 mM NaCl, 5 mM MgCl2, 0.08% Tween 20, 20% glycerol, 2 mM DTT, 5 nM DNA, 25 C; BLI: 25 mM HEPES pH 7.5, 150 mM NaCl, 5 mM MgCl2, 2 mM. As to conditions: protein: recombinant; (HisTrap purified); chain copies: 2; label: 5'-FAM on primer S8; 15 bp duplex, 5' overhang 16 nt on template (recessed primer 3' end). (Fluorescence polarisation rises when a labelled molecule tumbles more slowly, as on binding a larger partner.)

In data set [5] the target is MutL H270A (Escherichia coli, UniProt P23367 1-615, H270A). Described as above. As to conditions: protein: recombinant; (HisTrap purified); chain copies: 2; label: 5'-FAM on primer S8; 15 bp duplex, 5' overhang 16 nt on template (recessed primer 3' end).
The target in data set [6] is MutL H270A+H319A (Escherichia coli, UniProt P23367 1-615, H270A;H319A). The data set is described as above. The conditions noted are these: protein: recombinant; (HisTrap purified); chain copies: 2; label: 5'-FAM on primer S8; 15 bp duplex, 5' overhang 16 nt on template (recessed primer 3' end).
Data set [7] addresses T1, MutL WT. In words: fluorescence anisotropy; 3 mM ATP; FA: 20 mM HEPES pH 7.5, 150 mM NaCl, 5 mM MgCl2, 0.08% Tween 20, 20% glycerol, 2 mM DTT, 5 nM DNA, 25 C; BLI: 25 mM HEPES pH 7.5, 150 mM NaCl, 5 mM MgCl2, 2 mM. As to conditions: protein: recombinant, (HisTrap purified), chain copies: 2.

B1: cryo-EM 3' resected DNA (dsDNA)
DNA 1: AAACAGGCTTAGGCTGGAGGATCAGCTTAGCTTAGAGTCATC
DNA 2: GATGACTCTAAGCTAAGCTGA
As to B1, the binding result in data set [1] is on record as “binds”.

B2: 3' resected primer/template junction (dsDNA)
DNA 1: AAGTGTCTGTCGTTTTAAGGACGAAGGACTC
DNA 2: GAGTCCTTCGTCCTT
For B2, the Kd (usually the free concentration of one partner at which half of the binding sites on the other are occupied at equilibrium, for simple one-to-one binding) was found to be 0.29 ± 0.12 µM in data set [2], 0.65 ± 0.32 µM in data set [3], 4.51 ± 1.18 µM in data set [4] and 1.59 ± 0.23 µM in data set [5]. Moreover, the binding result in data set [6] is “no binding”.

B3: 5' resected primer/template junction (dsDNA)
DNA 1: B2 DNA 1
DNA 2: AAAACGACAGACACTT
Take B3: the binding result in data set [7] (label: 3'-FAM on primer S7) is reported as “no binding”.

B4: blunt-ended DNA (dsDNA)
DNA 1: AAGTGTCTGTCGTTTT
DNA 2: AAAACGACAGACACTT
Turning to B4, the binding result in data set [7] (label: 3'-FAM on S7) is listed as “no binding”.

These data come from paper PMC9226502, “MutL binds to 3′ resected DNA ends and blocks DNA polymerase access”.
